# Source: paper PMC8699464, “Cyclic Tetra-Adenylate (cA4) Recognition by Csa3; Implications for an Integrated Class 1 CRISPR-Cas Immune Response in Saccharolobus solfataricus” (Biomolecules, 2021)
# T1: Csa3a (SsCsa3a) (Saccharolobus solfataricus P2, UniProt Q97Y88 1-237)
# T1 sequence: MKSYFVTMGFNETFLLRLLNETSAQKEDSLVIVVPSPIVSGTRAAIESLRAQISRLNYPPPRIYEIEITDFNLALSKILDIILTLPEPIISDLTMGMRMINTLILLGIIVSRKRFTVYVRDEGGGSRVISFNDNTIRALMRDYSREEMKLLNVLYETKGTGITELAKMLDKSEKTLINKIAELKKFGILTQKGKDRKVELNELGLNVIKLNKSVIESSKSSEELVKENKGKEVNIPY
# T2: Csa3a (SsCsa3a, Sso1445) (Saccharolobus solfataricus, UniProt Q97Y88)
# T2 construct: gene csa3; 6×His-tagged Sso1445 (pEXP14-6×His-Sso1445), homodimer; crystal model lacks residues 213–237 of both chains and 160–162, 174–176, 192–195 of chain A
# T2 sequence (Q97Y88 1-237): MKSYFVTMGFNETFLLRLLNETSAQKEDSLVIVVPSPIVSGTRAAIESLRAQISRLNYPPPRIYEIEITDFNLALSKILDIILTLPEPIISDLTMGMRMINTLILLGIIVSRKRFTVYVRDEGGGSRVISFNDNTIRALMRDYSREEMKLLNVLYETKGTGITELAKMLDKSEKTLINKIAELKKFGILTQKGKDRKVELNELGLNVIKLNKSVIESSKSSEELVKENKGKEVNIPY
# Key:
# Csa3a (SsCsa3a) [1] = target: T1, Csa3a (SsCsa3a); assay: fluorescence polarization; conditions: 37 C 30 min, 18 nM DNA (5.2 ng/uL), +/-10 uM cA4, 2% agarose, FP: 20 mM SPG, 50 mM NaCl, pH 6.5, 50 C (also 21 C), 30 nM DNA, ITC: 10 mM Tris
# Csa3a (SsCsa3a, Sso1445) = target: T2, Csa3a (SsCsa3a, Sso1445); assay: ITC at […] °C; co-crystal structure at […] Å; type: binding
# [2] = target: the molecule itself; assay: crystal structure; Csa3a co-crystallised with cA4 by hanging drop vapor diffusion at 22 °C; 2.45 Å; space group P212121; one Csa3a dimer in the asymmetric unit
# Csa3a (SsCsa3a) [3] = target: T1, Csa3a (SsCsa3a); assay: ITC; 25 C; 250-500 uM cA4; n about 0.6 per dimer; endothermic; EMSA: TAE, 37 C 30 min, 18 nM DNA (5.2 ng/uL), +/-10 uM cA4, 2% agarose; FP: 20 mM SPG, 50 mM NaCl, pH 6.5, 50 C (also 21 C), 30 nM DNA; ITC: 10 mM Tris, 50 mM; conditions: protein: recombinant; tags: 6xHis (pEXP14-6xHis-Sso1445); chain copies: 2; cyclic, single copy per Csa3a dimer
molecule,measurement,setting,value
"20 bp CAPPa, I-A (2) cas4a promoter",Kd,"Csa3a (SsCsa3a) [1]; 10 uM cA4, 50 C, EMSA: TAE",2.7 µM
same,Kd,"Csa3a (SsCsa3a) [1]; no cA4, 50 C, non-cooperative, EMSA: TAE",3.2 µM
75 bp I-A (2) cas4a CAPPa fragment,Kd,"Csa3a (SsCsa3a) [1]; 10 uM cA4, 50 C, cooperative, EMSA: TAE",0.21 µM
same,Kd,"Csa3a (SsCsa3a) [1]; no cA4, 50 C, cooperative, Hill about 2, EMSA: TAE",0.27 µM
"Nc1ncnc2c1ncn2[C@@H]1O[C@@H]2COP(=O)(O)O[C@H]3[C@@H](O)[C@H](n4cnc5c(N)ncnc54)O[C@@H]3COP(=O)(O)O[C@H]3[C@@H](O)[C@H](n4cnc5c(N)ncnc54)O[C@@H]3COP(=O)(O)O[C@H]3[C@@H](O)[C@H](n4cnc5c(N)ncnc54)O[C@@H]3COP(=O)(O)O[C@H]2[C@H]1O [cA4, cyclic tetra-adenylate]",Kd,"Csa3a (SsCsa3a, Sso1445)",1 to 1.5 µM
"Saccharolobus solfataricus Csa3a (Sso1445) (natural protein, UniProt Q97Y88 1-237, looked up, Csa3a (Sso1445) of Saccharolobus (Sulfolobus) solfataricus P2, with an N-terminal CARF domain and a C-terminal winged helix-turn-helix domain; also called SsCsa3a; SsCsa3; source: E. coli BL21 (DE3)-pRIL, purified (heat step at 60 °C, Ni-NTA, Superdex 75)) MKSYFVTMGFNETFLLRLLNETSAQKEDSLVIVVPSPIVSGTRAAIESLRAQISRLNYPPPRIYEIEITDFNLALSKILDIILTLPEPIISDLTMGMRMINTLILLGIIVSRKRFTVYVRDEGGGSRVISFNDNTIRALMRDYSREEMKLLNVLYETKGTGITELAKMLDKSEKTLINKIAELKKFGILTQKGKDRKVELNELGLNVIKLNKSVIESSKSSEELVKENKGKEVNIPY",binding result,[2],binds
"AAAA (ssRNA, cyclic, 3'-5' linked?) [cA4 (cyclic tetra-adenylate)]",Kd,Csa3a (SsCsa3a) [3],1.23 µM
